Data: IntAct's records for PubMed 21152186

B1: Matrix metalloproteinase-28 (Homo sapiens), Q9H239 (parent)
chain: MVARVGLLLRALQLLLWGHLDAQPAERGGQELRKEAEAFLEKYGYLNEQVPKAPTSTRFSDAIRAFQWVSQLPVSGVLDRATLRQMTRPRCGVTDTNSYAAWAERISDLFARHRTKMRRKKRFAKQGNKWYKQHLSYRLVNWPEHLPEPAVRGAVRAAFQLWSNVSALEFWEAPATGPADIRLTFFQGDHNDGLGNAFDGPGGALAHAFLPRRGEAHFDQDERWSLSRRRGRNLFVVLAHEIGHTLGLTHSPAPRALMAPYYKRLGRDALLSWDDVLAVQSLYGKPLGGSVAVQLPGKLFTDFETWDSYSPQGRRPETQGPKYCHSSFDAITVDRQQQLYIFKGSHFWEVAADGNVSEPRPLQERWVGLPPNIEAAAVSLNDGDFYFFKGGRCWRFRGPKPVWGLPQLCRAGGLPRHPDAALFFPPLRRLILFKGARYYVLARGGLQVEPYYPRSLQDWGGIPEEVSGALPRPDGSIIFFRDDRYWRLDQAKLQATTSGRWATELPWMGCWHANSGSALF

Variants of: B1
Conditions: with furin_human FURIN

Row | effect of a mutation on the interaction | Variant
1 | with no effect | E241A
2 | with no effect | R119A;K120A

Further lines, the variant ahead of its results:

Row | Variant | effect of a mutation on the interaction
3 | Y43A;G44A | with no effect
4 | Y45A;L46A | disrupting interaction strength
